Columns and labels:
Conditions in all cases: result in words
[1] = target: T1, human CD39 (vascular isoform) (Homo sapiens, UniProt P49961); experiment: ELISA titration on recombinant human CD39; format: binding
T1 sequence (P49961 1-510): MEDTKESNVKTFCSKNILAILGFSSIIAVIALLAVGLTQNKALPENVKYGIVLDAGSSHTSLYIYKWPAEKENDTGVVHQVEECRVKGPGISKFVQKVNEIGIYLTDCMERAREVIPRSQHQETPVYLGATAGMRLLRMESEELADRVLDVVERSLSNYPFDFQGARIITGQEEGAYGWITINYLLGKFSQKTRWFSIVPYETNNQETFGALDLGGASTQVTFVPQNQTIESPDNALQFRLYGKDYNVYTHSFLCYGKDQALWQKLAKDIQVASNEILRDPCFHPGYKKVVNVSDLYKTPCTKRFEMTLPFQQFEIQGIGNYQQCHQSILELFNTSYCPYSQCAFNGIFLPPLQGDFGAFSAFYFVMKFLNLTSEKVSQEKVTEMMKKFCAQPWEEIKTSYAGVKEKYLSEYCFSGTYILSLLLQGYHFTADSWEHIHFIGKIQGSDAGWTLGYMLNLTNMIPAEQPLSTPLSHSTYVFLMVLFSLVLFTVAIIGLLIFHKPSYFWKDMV
Method: (§1) Antibody I-394 was tested for binding to recombinant human CD39 isoforms (Rec-huCD39 isoforms) having amino acid sequences shown below were coated in 96-well plate in PBS 1× at 500 ng/ml or 1 μg/ml at 4° C. overnight. Wells were washed in TBS Tween 20, and further saturated 2H at RT in TBS Blocking buffer. Dose range concentration of primary antibody was incubated in TBS blocking buffer for 2 h at RT. Wells were washed in TBS Tween 20. […] Optical density was measured on Enspire™ at OD=450.

[2] = test system: cynomolgus CD39-expressing CHO cells (CHO-cyCD39); experiment: Inhibition of the enzymatic activity of cellular CD39 in CHO-cyCD39; format: cell-based, cynomolgus (Macaca fascicularis)
Method: The inhibition of the CD39 enzymatic activity in CD39-expressing cells by antibodies was evaluated using Cell Titer Glo™ (Promega, reference G7571) that allows assessment of ATP hydrolysis through use of a reagent that generates a luminescent signal proportional to the amount of ATP present. The assay was thus designed to permit assessment of the inhibition of ATP hydrolyzed by CD39 in the cell culture supernatant. Briefly, 5×10^4 Ramos human lymphoma cells, 5×10^3 human CD39-, cynomolgus CD39- and mouse CD39-expressing CHO cells, were incubated 1 hour at 37° C. with anti-CD39 antibodies from 30 μg/ml to […]. Cells were then incubated with 20 μM ATP for 1 additional hour at 37° C. Plates were centrifuged for 2 min at 400 g and 50 μl cell supernatant are transferred in a luminescence microplate (white wells). 50 μl CellTiter-Glo® Reagent (CTG) was added to the supernatant and emitted light was quantified after a 5 min incubation in the dark using a Enspire™ luminometer. Anti-CD39 antibody efficacy was determined by comparing emitted light in presence of antibody with ATP alone (maximal light emission) and ATP together with cells (minimal light emission).
The inhibition by antibody I-394 of the ATPase activity of CD39 in CD39-expressing cells was evaluated using the assay used for inhibition of the enzymatic activity of cellular CD39 as described above (Methods).

[3] = target: T2, human Ramos lymphoma cells (CD39) (Homo sapiens, UniProt P49961); experiment: Antibody titration on Ramos cells by flow cytometry; format: binding
T2 construct: host or cells: Ramos human lymphoma cells
T2 sequence (P49961 1-510): T1 sequence (P49961 1-510)
Method: (§2) Antibody I-394 was tested in two repeated experiments for binding to CHO cells expressing human CD39, CHO cells expressing cynomolgus (Macaca fascicularis) CD39, CHO cells expressing murine CD39, and human Ramos lymphoma cells (ATCC™, reference CRL-1596). Cells were incubated with various concentration of unlabeled anti-CD39 antibody from 30 μg/ml to 5×10^−4 μg/ml, for 30 minutes at 4° C. After washes, cells were incubated with Goat anti-mouse H+L labeled secondary antibody for 30 min at 4° C.

[4] = test system: CHO cells expressing cynomolgus (Macaca fascicularis) CD39; experiment: Antibody titration on CHO-cyCD39 by flow cytometry; format: binding
Method: as §2

[5] = target: T3, Human CD39-L1 (NTPDase2, ENTPD2) (Homo sapiens, UniProt Q9Y5L3); experiment: ELISA titration on CD39-L1; format: binding
T3 sequence (Q9Y5L3 1-472 isoform Q9Y5L3-2): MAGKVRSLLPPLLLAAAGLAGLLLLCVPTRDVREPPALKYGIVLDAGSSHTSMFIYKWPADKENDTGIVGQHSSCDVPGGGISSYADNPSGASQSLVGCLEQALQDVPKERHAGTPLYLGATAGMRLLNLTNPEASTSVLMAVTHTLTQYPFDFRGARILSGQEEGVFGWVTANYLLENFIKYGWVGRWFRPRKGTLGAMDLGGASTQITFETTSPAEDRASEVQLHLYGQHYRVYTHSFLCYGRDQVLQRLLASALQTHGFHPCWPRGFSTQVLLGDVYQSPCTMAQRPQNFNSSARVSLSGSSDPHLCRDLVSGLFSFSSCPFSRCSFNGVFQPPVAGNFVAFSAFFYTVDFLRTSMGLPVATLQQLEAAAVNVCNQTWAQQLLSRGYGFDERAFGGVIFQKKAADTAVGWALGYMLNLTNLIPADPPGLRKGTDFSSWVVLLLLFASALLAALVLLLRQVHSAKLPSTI
Method: as §1

- binding to CD39 in ELISA [1]: bound
- binding to Ramos lymphoma cells [3]: bound
- binding to CD39-L1 in ELISA [5]: not
Substance: I-394: anti-CD39 antibody, VH SEQ ID NO: 6, VL SEQ ID NO: 7; human IgG1 Fc with L234A/L235E/G237A/A330S/P331S
- blocking CD39 enzymatic activity in CHO-cyCD39 [2]: blocks
- binding to cells expressing cynomolgus CD39 (CHO-cyCD39) [4]: bound
